Data published in patent US20140212436A1.

Assays:
Assay in all cases: Biacore
[1] = target: human V158 FcγRIIIa (human) (UniProt P08637)
[2] = target: human FcγRI (human) (UniProt P12314)
[3] = target: FcγRIIaR (human) (UniProt P12318)
[4] = target: recombinant human FcγRIIb protein (human) (UniProt P31994)
[5] = target: human H131 FcγRIIa (human) (UniProt P12318)
human H131 FcγRIIa (human), sequence (P12318 other isoform, or with tags, fused parts or gaps limits assumed): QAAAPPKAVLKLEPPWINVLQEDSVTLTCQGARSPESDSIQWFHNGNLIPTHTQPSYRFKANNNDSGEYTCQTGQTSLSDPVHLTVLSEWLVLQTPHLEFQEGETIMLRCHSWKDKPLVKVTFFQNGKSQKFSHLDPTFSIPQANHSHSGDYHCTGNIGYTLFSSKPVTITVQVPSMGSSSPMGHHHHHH

FcγRIIaR (human), sequence (P12318 34-217 H167R limits assumed): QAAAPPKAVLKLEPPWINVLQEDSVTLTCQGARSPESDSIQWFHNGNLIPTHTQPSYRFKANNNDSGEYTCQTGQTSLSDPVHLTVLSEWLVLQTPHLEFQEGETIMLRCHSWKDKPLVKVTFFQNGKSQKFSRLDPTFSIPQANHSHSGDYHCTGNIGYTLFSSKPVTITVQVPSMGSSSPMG
human FcγRI (human), sequence (P12314 16-288 limits assumed): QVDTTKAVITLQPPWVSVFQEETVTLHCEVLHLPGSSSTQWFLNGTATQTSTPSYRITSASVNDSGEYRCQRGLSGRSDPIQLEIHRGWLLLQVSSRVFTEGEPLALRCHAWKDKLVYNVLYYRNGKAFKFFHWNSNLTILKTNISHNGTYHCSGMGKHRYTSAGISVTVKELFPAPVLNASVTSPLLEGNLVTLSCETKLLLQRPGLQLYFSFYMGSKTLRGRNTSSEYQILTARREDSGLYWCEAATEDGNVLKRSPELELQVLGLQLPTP
human V158 FcγRIIIa (human), sequence (P08637 other isoform, or with tags, fused parts or gaps limits assumed): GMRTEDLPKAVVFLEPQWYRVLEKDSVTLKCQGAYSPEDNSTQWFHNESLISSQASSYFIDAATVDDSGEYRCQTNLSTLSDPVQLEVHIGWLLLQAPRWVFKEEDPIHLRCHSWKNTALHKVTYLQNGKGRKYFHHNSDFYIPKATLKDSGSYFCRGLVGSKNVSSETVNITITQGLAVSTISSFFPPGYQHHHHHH
recombinant human FcγRIIb protein (human), sequence (P31994 46-217 limits assumed): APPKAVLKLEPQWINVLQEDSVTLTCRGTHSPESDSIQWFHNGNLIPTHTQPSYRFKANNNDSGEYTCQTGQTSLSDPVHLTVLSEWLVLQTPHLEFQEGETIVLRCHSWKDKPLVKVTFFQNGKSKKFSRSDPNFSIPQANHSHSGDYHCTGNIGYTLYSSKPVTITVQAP

| Substance | Fold [1] | Kd [1] | Fold [2] | Kd [2] | Fold [3] | Kd [3] | Fold [4] | Kd [4] | Fold [5] | Kd [5] |
| --- | --- | --- | --- | --- | --- | --- | --- | --- | --- | --- |
| L234D/S267E (antibody) | 0.14 | 1370 nM | 0.0286 | 11.5 nM | 12.7 | 67.7 nM | 21.7 | 67.8 nM | – | – |
| S267A (antibody) | 0.952 | 201 nM | 1.15 | 0.287 nM | 4.29 | 200 nM | – | 408 nM | 1.22 | 530 nM |
| S239E (antibody) | 3.49 | 54.8 nM | 1.65 | 0.2 nM | 0.688 | 1250 nM | 0.803 | 1830 nM | 0.49 | 1320 nM |
| S267E/H268E/L328F (antibody) | 0.092 | 2080 nM | 0.991 | 0.333 nM | 253 | 3.4 nM | 344 | 4.26 nM | 0.826 | 783 nM |
| H268E (antibody) | 2.19 | 87.5 nM | 2.74 | 0.12 nM | 3.19 | 269 nM | 2.62 | 560 nM | 1.43 | 453 nM |
| H268D (antibody) | 3.08 | 62.2 nM | 2.35 | 0.14 nM | 4.19 | 205 nM | 3.06 | 480 nM | 1.89 | 342 nM |
| L235Y/S267E (antibody) | – | – | 0.00347 | 95 nM | 37.5 | 22.9 nM | 37.2 | 39.4 nM | 0.941 | 687 nM |
| G236D/S267E/L328F (antibody) | – | – | 0.0736 | 4.48 nM | 59.9 | 14.3 nM | 149 | 9.87 nM | 0.0301 | 21500 nM |
| L235F/S267E (antibody) | – | – | 0.0176 | 18.7 nM | 32.5 | 26.4 nM | 28.4 | 51.7 nM | 0.402 | 1610 nM |
| G236N/S267E (antibody) | – | – | 0.0355 | 9.27 nM | 3.27 | 263 nM | 19.8 | 74.2 nM | – | – |
| S267D (antibody) | 1.51 | 127 nM | 2.11 | 0.156 nM | 8.99 | 95.5 nM | 4.45 | 330 nM | 0.93 | 695 nM |
| S239D/S267E/H268E (antibody) | – | – | – | 0.326 nM | – | – | – | 6.91 nM | – | 817 nM |
| IgG1/2ELLGG_S267E/L328F (antibody) | – | – | 2.35 | 0.14 nM | 269 | 3.19 nM | 221 | 6.63 nM | 0.993 | 651 nM |
| G237N/S267E (antibody) | – | – | 0.101 | 3.25 nM | 61.5 | 14 nM | 40.5 | 36.2 nM | – | – |
| G236D/S239D/S267E (antibody) | – | – | 0.0685 | 4.81 nM | 26.7 | 32.2 nM | 84.8 | 17.3 nM | 0.217 | 2980 nM |
| L234F (antibody) | – | – | 0.0362 | 9.11 nM | 0.228 | 3760 nM | 0.409 | 3590 nM | – | – |
| S267G (antibody) | – | – | – | 0.626 nM | – | 517 nM | – | 1450 nM | – | – |
| G236D (antibody) | – | – | 0.0211 | 15.6 nM | 0.758 | 1130 nM | 1.54 | 953 nM | 0.167 | 3870 nM |
| A327N (antibody) | – | – | 0.0279 | 11.8 nM | 0.609 | 1410 nM | 0.843 | 1740 nM | – | – |

| Substance | Fold [1] | Kd [1] | Fold [2] | Kd [2] | Fold [3] | Kd [3] | Fold [4] | Kd [4] | Fold [5] | Kd [5] |
| --- | --- | --- | --- | --- | --- | --- | --- | --- | --- | --- |
| L234W (antibody) | – | 6590 nM | – | 10.5 nM | – | – | – | 1770 nM | – | 1160 nM |
| S267E/A327D (antibody) | 0.00199 | 96300 nM | 1.66 | 0.198 nM | 16.7 | 51.3 nM | 21.2 | 69.1 nM | – | – |
| A327Q (antibody) | – | – | – | – | 0.634 | 1350 nM | 0.011 | 134000 nM | – | – |
| L234Q (antibody) | – | – | – | – | 0.0372 | 23100 nM | 0.147 | 10000 nM | – | – |
| G237A (antibody) | – | – | 0.0108 | 30.5 nM | 0.704 | 1220 nM | 0.191 | 7680 nM | – | – |
| L235D/S267E (antibody) | – | – | 0.00039 | 854 nM | 13 | 66.1 nM | 16.7 | 88.1 nM | – | – |
| L235Y/S267E/L328F (antibody) | – | – | 0.00436 | 75.5 nM | 171 | 5.02 nM | 187 | 7.83 nM | 0.758 | 853 nM |
| H268N (antibody) | – | – | – | – | 1.79 | 481 nM | 1.17 | 1250 nM | – | – |
| L234K (antibody) | – | – | – | – | 0.00859 | 100000 nM | 0.0147 | 100000 nM | – | – |
| G236V (antibody) | – | – | – | – | 0.106 | 8080 nM | 0.0147 | 100000 nM | – | – |
| G237K (antibody) | – | – | – | – | 0.00859 | 100000 nM | 0.0147 | 100000 nM | – | – |
| L234V (antibody) | – | – | – | – | 0.134 | 6420 nM | 0.456 | 3220 nM | – | – |
| A327G (antibody) | – | – | – | – | 0.319 | 2690 nM | 0.353 | 4160 nM | – | – |
| G236R (antibody) | – | – | – | – | 0.00859 | 100000 nM | 0.0147 | 100000 nM | – | – |
| L234E/S267E (antibody) | – | – | 0.131 | 2.51 nM | 10.7 | 80.4 nM | 15.1 | 97 nM | – | – |
| S239N (antibody) | – | – | – | – | 0.867 | 990 nM | 1.45 | 1010 nM | – | – |
| S239Q (antibody) | – | – | – | – | 0.853 | 1010 nM | 0.729 | 2010 nM | – | – |
| S267E/N325L (antibody) | – | – | – | – | 41.5 | 20.7 nM | 31.5 | 46.6 nM | – | – |
| G236M (antibody) | – | – | – | – | 0.0859 | 10000 nM | 0.147 | 10000 nM | – | – |

| Substance | Fold [1] | Kd [1] | Fold [2] | Kd [2] | Fold [3] | Kd [3] | Fold [4] | Kd [4] | Fold [5] | Kd [5] |
| --- | --- | --- | --- | --- | --- | --- | --- | --- | --- | --- |
| L234E/S267E/L328F (antibody) | – | – | 0.0425 | 7.75 nM | 174 | 4.93 nM | 195 | 7.53 nM | 0.0725 | 8920 nM |
| L234P (antibody) | – | – | – | – | 0.0141 | 60700 nM | 0.0644 | 22800 nM | – | – |
| G237D/S267E (antibody) | – | – | 0.0874 | 3.77 nM | 13.6 | 63.1 nM | 17 | 86.1 nM | – | – |
| P329E (antibody) | – | – | – | – | 0.0859 | 10000 nM | 0.147 | 10000 nM | – | – |
| G236F (antibody) | – | – | – | – | 0.00859 | 100000 nM | 0.0147 | 100000 nM | – | – |
| L235D/S267E/L328F (antibody) | – | – | 0.00057 | 573 nM | 133 | 6.45 nM | 80.4 | 18.2 nM | 0.275 | 2350 nM |
| G236W (antibody) | – | – | – | – | 0.0859 | 10000 nM | 0.147 | 10000 nM | – | – |
| L235Y/G236D/S267E (antibody) | – | – | – | – | 9.67 | 88.8 nM | 25 | 58.7 nM | – | – |
| S267E/L328H (antibody) | – | – | – | – | 4.64 | 185 nM | 5.17 | 284 nM | – | – |
| L235H (antibody) | – | – | – | – | 0.756 | 1140 nM | 0.734 | 2000 nM | – | – |
| G236E/S267E (antibody) | – | – | – | – | 36.5 | 23.5 nM | 11.4 | 129 nM | – | – |
| G236T (antibody) | – | – | 0.0157 | 21 nM | 0.35 | 2460 nM | 0.00225 | 652000 nM | 0.486 | 1330 nM |
| L234S (antibody) | – | – | – | – | 0.693 | 1240 nM | 0.192 | 7640 nM | – | – |
| S267E/L328Y (antibody) | – | – | 0.224 | 1.47 nM | 122 | 7.06 nM | 43.1 | 34.1 nM | 1.34 | 481 nM |
| D265E (antibody) | – | – | – | – | 0.307 | 2790 nM | 0.417 | 3520 nM | – | – |
| G236D/S267E/H268E (antibody) | – | – | 0.0902 | 3.65 nM | 29.9 | 28.7 nM | 110 | 13.4 nM | 0.103 | 6300 nM |
| G236P (antibody) | – | – | – | – | 0.0859 | 10000 nM | 0.147 | 10000 nM | – | – |
| L235S (antibody) | – | – | – | – | 0.00859 | 100000 nM | 0.0147 | 100000 nM | – | – |
| G237S (antibody) | – | – | – | – | 0.081 | 10600 nM | 0.147 | 10000 nM | – | – |
